Relative binding activity and Kd data for four molecules are collected here from patent US20240279325A1 (Chugai, published 2024).

Assay [1] concerns the target T1, human FcγRIa extracellular domain with C-terminal His tag (human, UniProt P12314 16-292).
T1 construct: extracellular domain; also called FrgRIa
As to the kind of experiment: SPR (Biacore), captured antibody, FcγR analyte. In general terms: Surface plasmon resonance follows binding to a sensor surface in real time, without labels.

The target in assay [2] is T2, human FcγRIIIa type V (allotype V158) extracellular domain with C-terminal His tag (human, UniProt P08637 17-208).
T2 construct: extracellular domain; also called FcγRIIIaV; FrgRIIIaV
In words: SPR (Biacore), captured antibody, FcγR analyte.

The target in assay [3] is T3, human FcγRIIa type H (allotype H131) extracellular domain with C-terminal His tag (human, UniProt P12318 34-217).
T3 construct: extracellular domain; also called FcγRIIaH; FrgRIIaH
T3 sequence (looked up): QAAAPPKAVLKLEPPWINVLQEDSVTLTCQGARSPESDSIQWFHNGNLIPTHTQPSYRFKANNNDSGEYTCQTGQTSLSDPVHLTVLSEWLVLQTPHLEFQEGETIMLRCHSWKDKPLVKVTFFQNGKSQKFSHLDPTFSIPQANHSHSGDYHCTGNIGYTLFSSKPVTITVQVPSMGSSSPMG
As to the kind of experiment: SPR (Biacore), captured antibody, FcγR analyte.

Assay [4] deals with T4, human FcγRIIa type R (allotype R131) extracellular domain with C-terminal His tag (human, UniProt P12318 34-217).
T4 construct: extracellular domain; also called FcγRIIaR; FrgRIIaR
T4 sequence (looked up): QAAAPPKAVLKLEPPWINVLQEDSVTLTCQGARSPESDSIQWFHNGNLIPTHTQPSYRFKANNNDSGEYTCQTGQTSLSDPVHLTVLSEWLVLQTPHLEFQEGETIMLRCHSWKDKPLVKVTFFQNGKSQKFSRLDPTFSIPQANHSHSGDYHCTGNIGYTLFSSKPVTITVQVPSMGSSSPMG
As to the kind of experiment: SPR (Biacore), captured antibody, FcγR analyte.

Assay [5] deals with T5, human FcγRIIb extracellular domain with C-terminal His tag (human, UniProt P31994 43-217).
T5 construct: extracellular domain; also called FrgRIIb
T5 sequence (looked up): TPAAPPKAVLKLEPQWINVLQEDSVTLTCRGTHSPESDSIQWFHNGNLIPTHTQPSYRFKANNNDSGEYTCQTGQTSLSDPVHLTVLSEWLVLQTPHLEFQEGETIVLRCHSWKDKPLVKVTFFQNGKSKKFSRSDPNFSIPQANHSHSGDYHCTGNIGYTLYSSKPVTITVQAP
As to the kind of experiment: SPR (Biacore), captured antibody, FcγR analyte.

The target in assay [6] is T6, human FcγRIIb extracellular domain with C-terminal His tag (human, UniProt P31994 43-217).
T6 construct: extracellular domain; not shown: His tag at the C terminus
T6 sequence (looked up): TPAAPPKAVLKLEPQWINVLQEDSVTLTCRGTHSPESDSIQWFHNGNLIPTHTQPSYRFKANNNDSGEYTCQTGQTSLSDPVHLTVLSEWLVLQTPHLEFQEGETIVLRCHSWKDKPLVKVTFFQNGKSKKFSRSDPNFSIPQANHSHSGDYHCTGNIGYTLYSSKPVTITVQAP
As to the kind of experiment: SPR (Biacore), antibody captured, FcγR analyte.

The target of assay [7] is T7, human FcγRIIa type H (allotype H131) extracellular domain with C-terminal His tag (human, UniProt P12318 34-217).
T7 construct: extracellular domain; also called FcγRIIaH; not shown: His tag at the C terminus
T7 sequence (looked up): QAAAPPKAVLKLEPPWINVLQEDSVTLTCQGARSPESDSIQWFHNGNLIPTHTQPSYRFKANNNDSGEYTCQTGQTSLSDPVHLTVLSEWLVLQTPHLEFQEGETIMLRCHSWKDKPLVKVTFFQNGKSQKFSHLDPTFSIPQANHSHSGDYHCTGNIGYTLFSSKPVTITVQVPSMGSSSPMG
As to the kind of experiment: SPR (Biacore), antibody captured, FcγR analyte.

Assay [8] addresses T8, human FcγRIIa type R (allotype R131) extracellular domain with C-terminal His tag (human, UniProt P12318 34-217).
T8 construct: also called FcγRIIaR
T8 chain: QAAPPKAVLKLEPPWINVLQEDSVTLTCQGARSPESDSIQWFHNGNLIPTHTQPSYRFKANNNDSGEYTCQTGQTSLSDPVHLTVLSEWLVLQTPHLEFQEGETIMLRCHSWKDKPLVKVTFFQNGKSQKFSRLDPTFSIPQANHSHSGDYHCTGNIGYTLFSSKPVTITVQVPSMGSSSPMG
In words: SPR (Biacore), captured antibody, FcγR analyte.

The target in assay [9] is T9, human FcγRIIa type H (allotype H131) extracellular domain with C-terminal His tag (human, UniProt P12318 34-217).
T9 construct: also called FcγRIIaH
T9 sequence: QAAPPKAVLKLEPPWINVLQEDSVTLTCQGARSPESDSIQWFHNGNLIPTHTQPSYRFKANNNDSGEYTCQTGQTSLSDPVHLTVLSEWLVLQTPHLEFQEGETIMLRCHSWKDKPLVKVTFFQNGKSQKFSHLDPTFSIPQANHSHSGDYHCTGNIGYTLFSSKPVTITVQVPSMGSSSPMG
In words: SPR (Biacore), captured antibody, FcγR analyte.

The term Kd denotes the concentration at which binding is half-saturated. Higher therefore signals weaker binding.

T1 sequence (P12314 16-292): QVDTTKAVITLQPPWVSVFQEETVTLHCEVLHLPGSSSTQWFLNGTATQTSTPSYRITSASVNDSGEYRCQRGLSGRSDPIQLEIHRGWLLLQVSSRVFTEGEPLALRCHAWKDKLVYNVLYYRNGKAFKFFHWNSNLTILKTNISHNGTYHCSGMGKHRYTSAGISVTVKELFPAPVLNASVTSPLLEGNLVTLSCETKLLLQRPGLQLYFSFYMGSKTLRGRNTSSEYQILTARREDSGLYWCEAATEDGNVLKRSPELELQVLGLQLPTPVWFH
T2 sequence (P08637 17-208 F176V): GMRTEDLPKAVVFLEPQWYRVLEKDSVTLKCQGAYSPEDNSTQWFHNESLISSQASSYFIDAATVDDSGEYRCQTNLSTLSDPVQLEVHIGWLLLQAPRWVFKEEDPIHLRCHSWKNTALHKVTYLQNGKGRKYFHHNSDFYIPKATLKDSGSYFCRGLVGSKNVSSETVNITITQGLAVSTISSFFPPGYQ

B1: IL6R-BP198/IL6R-L (antibody, human IgG1, kappa, name in EU numbering)
heavy: QVQLQESGPGLVKPSETLSLTCAVSGHSISHDHAWSWVRQPPGEGLEWIGFISYSGITNYNPSLQGRVTISRDNSKNTLYLQMNSLRAEDTAVYYCARSLARTTAMDYWGEGTLVTVSSASTKGPSVFPLAPSSKSTSGGTAALGCLVKDYFPEPVTVSWNSGALTSGVHTFPAVLQSSGLYSLSSVVTVPSSSLGTQTYICNVNHKPSNTKVDKKVEPKSCDKTHTCPPCPAPDYLGGDSVFLFPPKPKDTLMISRTPEVTCVVVDVSDEDGEVKFNWYVDGVEVHNAKTKPREEQYNSTYRVVSVLTVLHQDWLNGKEYKCKVSNAALPKPIEKTISKAKGQPREPQVYTLPPSRDELTKNQVSLTCLVKGFYPSDIAVEWESNGQPENNYKTTPPVLDSDGSFFLYSKLTVDKSRWQQGNVFSCSVMHEALHNHYTQESLSLSP
light: not shown
notes: Alterations introduced into IL6R-B3, EU numbering; copies: 2 + 2
As to B1, the relative binding activity was 104 % of IL6R-BF648/IL6R-L binding in assay [1]; 157 % of IL6R-BF648/IL6R-L binding in assay [2]; 188 % of IL6R-BF648/IL6R-L binding in [3]; 449 % of IL6R-BF648/IL6R-L binding in [4]; 164 % of IL6R-BF648/IL6R-L binding in [5].

B2: IL6R-BP202/IL6R-L (antibody, human IgG1, kappa, name in EU numbering)
heavy: QVQLQESGPGLVKPSETLSLTCAVSGHSISHDHAWSWVRQPPGEGLEWIGFISYSGITNYNPSLQGRVTISRDNSKNTLYLQMNSLRAEDTAVYYCARSLARTTAMDYWGEGTLVTVSSASTKGPSVFPLAPSSKSTSGGTAALGCLVKDYFPEPVTVSWNSGALTSGVHTFPAVLQSSGLYSLSSVVTVPSSSLGTQTYICNVNHKPSNTKVDKKVEPKSCDKTHTCPPCPAPELLGDDSVFLFPPKPKDTLMISRTPEVTCVVVDVSHEDGEVKFNWYVDGVEVHNAKTKPREEQYNSTYRVVSVLTVLHQDWLNGKEYKCKVSNAALPRPIEKTISKAKGQPREPQVYTLPPSRDELTKNQVSLTCLVKGFYPSDIAVEWESNGQPENNYKTTPPVLDSDGSFFLYSKLTVDKSRWQQGNVFSCSVMHEALHNHYTQESLSLSP
light: not shown
notes: EU numbering; copies: 2 + 2
B2: the Kd came out at 0.054 µM in assay [6] and 92 µM in [7].

B3: IL6R-BP514/IL6R-L (antibody, human IgG1, kappa, name in EU numbering)
heavy: QVQLQESGPGLVKPSETLSLTCAVSGHSISHDHAWSWVRQPPGEGLEWIGFISYSGITNYNPSLQGRVTISRDNSKNTLYLQMNSLRAEDTAVYYCARSLARTTAMDYWGEGTLVTVSSASTKGPSVFPLAPSSKSTSGGTAALGCLVKDYFPEPVTVSWNSGALTSGVHTFPAVLQSSGLYSLSSVVTVPSSSLGTQTYICNVNHKPSNTKVDKKVEPKSCDKTHTCPPCPAPDLLGDDSVFLFPPKPKDTLMISRTPEVTCVVVDVSEEDGFVKFNWYVDGVEVHNAKTKPREEQYNSTYRVVSVLTVLHQDWLNGKEYKCKVSNKALPAPIEKTISKAKGQPREPQVYTLPPSRDELTKNQVSLTCLVKGFYPSDIAVEWESNGQPENNYKTTPPVLDSDGSFFLYSKLTVDKSRWQQGNVFSCSVMHEALHNHYTQESLSLSP
light: not shown
notes: copies: 2 + 2
In turn, B3 showed a Kd in [8] of 3 µM.

B4: IL6R-BP470/IL6R-L (antibody, human IgG1, kappa, name in EU numbering)
heavy: QVQLQESGPGLVKPSETLSLTCAVSGHSISHDHAWSWVRQPPGEGLEWIGFISYSGITNYNPSLQGRVTISRDNSKNTLYLQMNSLRAEDTAVYYCARSLARTTAMDYWGEGTLVTVSSASTKGPSVFPLAPSSKSTSGGTAALGCLVKDYFPEPVTVSWNSGALTSGVHTFPAVLQSSGLYSLSSVVTVPSSSLGTQTYICNVNHKPSNTKVDKKVEPKSCDKTHTCPPCPAPDLLGDDSVFLFPPKPKDTLMISRTPEVTCVVVDVSDEDGEVKFNWYVDGVEVHNAKTKPREEQDNSTYRVVSVLTVLHQDWLNGKEYKCKVSNKALPRPITKTISKAKGQPREPQVYTLPPSRDELTKNQVSLTCLVKGFYPSDIAVEWESNGQPENNYKTTPPVLDSDGSFFLYSKLTVDKSRWQQGNVFSCSVMHEALHNHYTQESLSLSP
light: not shown
notes: copies: 2 + 2
Molecule B4 had a Kd in [9] of 10 µM.
